# T1: human MSLN-R1-his protein (human, UniProt Q13421 296-390)
# T1 construct: also called hMSLN-R1-his; human MSLN-R1 protein; not shown: His tag
# T1 chain: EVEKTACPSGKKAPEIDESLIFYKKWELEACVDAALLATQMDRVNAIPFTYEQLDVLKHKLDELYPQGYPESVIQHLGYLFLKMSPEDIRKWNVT
# How the values were obtained:
# [1] = target: T2, human MSLN-R2-his protein (human, UniProt Q13421 391-486); experiment: ELISA; antibody 1 nM
# T2 construct: also called hMSLN-R2-his; not shown: His tag
# [2] = target: T3, human MSLN-R3-his protein (human, UniProt Q13421 487-598); experiment: ELISA; antibody 1 nM
# T3 construct: also called hMSLN-R3-his; not shown: His tag
# [3] = target: T1, human MSLN-R1-his protein; experiment: ELISA; antibody 1 nM
# [4] = target: T2, human MSLN-R2-his protein; experiment: ELISA; antibody 1 nM; remark: listed apart in the source
# [5] = target: T3, human MSLN-R3-his protein; experiment: ELISA; antibody 1 nM; remark: listed apart in the source
# [6] = target: T4, human MSLN-FL-his protein (human, UniProt Q13421 296-580); experiment: ELISA; antibody 1 nM
# T4 construct: also called hMSLN-FL-his; human MSLN full-length protein; not shown: His tag
# [7] = target: T2, human MSLN-R2-his protein; experiment: ELISA; antibody 10 nM
# [8] = target: T3, human MSLN-R3-his protein; experiment: ELISA; antibody 10 nM
# [9] = target: T3, human MSLN-R3-his protein; experiment: ELISA; antibody 0.1 nM
# [10] = target: T3, human MSLN-R3-his protein; experiment: ELISA; antibody 100 nM
# [11] = target: T2, human MSLN-R2-his protein; experiment: ELISA; antibody 0.01 nM
# [12] = target: T3, human MSLN-R3-his protein; experiment: ELISA; antibody 0.01 nM
# [13] = target: T2, human MSLN-R2-his protein; experiment: ELISA; antibody 0.001 nM
# [14] = target: T3, human MSLN-R3-his protein; experiment: ELISA; antibody 0.001 nM
# [15] = target: T2, human MSLN-R2-his protein; experiment: ELISA; antibody 0.0001 nM
# [16] = target: T3, human MSLN-R3-his protein; experiment: ELISA; antibody 0.0001 nM
# [17] = target: T5, human MSLN protein, endogenously expressed on Hela and OVCAR3 cells (human, UniProt Q13421 296-598); experiment: FACS on OVCAR3 cells; antibody 4 nM
# T5 construct: whole, on cells; also called mesothelin
# [18] = target: T5, human MSLN protein, endogenously …; experiment: FACS on OVCAR3 cells; antibody 20 nM
# [19] = target: T5, human MSLN protein, endogenously …; experiment: FACS on OVCAR3 cells; antibody 0.8 nM
# [20] = target: T5, human MSLN protein, endogenously …; experiment: FACS on OVCAR3 cells; antibody 100 nM
# [21] = target: T6, human MSLN-FL-his protein (human, UniProt Q13421 296-580); experiment: competitive ELISA; row F1.56.1
# T6 construct: made in HEK293E cells, purified on nickel column; also called hMSLN-FL-his; human MSLN full-length protein; not shown: His tag
# T6 sequence (Q13421 other isoform, or with tags, fused parts or gaps): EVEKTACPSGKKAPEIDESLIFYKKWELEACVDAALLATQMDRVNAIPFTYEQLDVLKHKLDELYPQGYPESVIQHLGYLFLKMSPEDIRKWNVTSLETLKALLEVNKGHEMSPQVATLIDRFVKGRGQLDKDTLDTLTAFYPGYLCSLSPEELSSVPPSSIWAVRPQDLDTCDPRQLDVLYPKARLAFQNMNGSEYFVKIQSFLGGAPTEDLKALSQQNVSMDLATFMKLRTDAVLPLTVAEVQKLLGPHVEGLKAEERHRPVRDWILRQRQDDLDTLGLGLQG
# [22] = target: T6, human MSLN-FL-his protein; experiment: competitive ELISA; row F2.13.3
# Method: (§1) In order to identify antigen-binding sites of antibodies, MSLN chimeric antibodies were grouped using competitive ELISA.
# (§2) The chimeric antibodies were diluted to 2 μg/mL with PBS and allowed to coat 96-well high-adsorption ELISA plates at 50 μL/well. After the plates were coated at 4° C. overnight, 250 μL of a blocking buffer (PBS containing 2% (w/w) BSA) was added for two hours of blocking at room temperature. 40 μg/mL of the antibodies to be tested were added, and then the human MSLN-FL-His protein with an EC₈₀ concentration corresponding to each of the antibodies to be tested was added for incubation for 2 h. The plates were washed 5 times with PBS, an HRP-labeled anti-His secondary antibody (purchased from Genescript, Cat. No. A00612) was then added for incubation for 1 h, and the plates were washed 5 times again. A TMB substrate was added at 50 μL/well, and after 10 minutes of incubation at room temperature, a stop solution (1.0 M HCl) was added at 50 μL/well. OD₄₅₀ nm values were read using an ELISA plate reader (Insight, purchased from PerkinElmer), and the competition rate between the antibodies was calculated according to the OD₄₅₀ nm values using a formula.
# [23] = target: T6, human MSLN-FL-his protein; experiment: competitive ELISA; row F2.39.3
# Method: as §1, §2
# [24] = target: T6, human MSLN-FL-his protein; experiment: competitive ELISA; row F2.58.8
# Method: as §1, §2
# [25] = target: T5, human MSLN protein, endogenously …; experiment: FACS on OVCAR3 cells; antibody 0.16 nM
# [26] = target: T6, human MSLN-FL-his protein; experiment: competitive ELISA; row F1.35.24
# Method: as §1, §2
# [27] = target: T6, human MSLN-FL-his protein; experiment: competitive ELISA; row F2.16.10
# Method: as §1, §2
# [28] = target: T6, human MSLN-FL-his protein; experiment: competitive ELISA; row F2.24.10
# Method: as §1, §2
# [29] = target: T5, human MSLN protein, endogenously …; experiment: FACS on OVCAR3 cells; antibody 0.032 nM
# [30] = target: T6, human MSLN-FL-his protein; experiment: competitive ELISA; row Tab108 (R3)
# Method: as §1, §2
# [31] = target: T6, human MSLN-FL-his protein; experiment: competitive ELISA; row Tab107 (conformation)
# Method: as §1, §2
# T3 sequence (Q13421 495-606): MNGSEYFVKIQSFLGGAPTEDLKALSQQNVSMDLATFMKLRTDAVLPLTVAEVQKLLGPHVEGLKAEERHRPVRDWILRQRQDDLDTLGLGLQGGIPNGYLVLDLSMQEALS
# T2 sequence (Q13421 other isoform, or with tags, fused parts or gaps): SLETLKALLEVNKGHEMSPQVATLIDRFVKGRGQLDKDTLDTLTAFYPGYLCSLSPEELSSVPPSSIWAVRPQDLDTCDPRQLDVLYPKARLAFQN
# T5 sequence (Q13421 other isoform, or with tags, fused parts or gaps): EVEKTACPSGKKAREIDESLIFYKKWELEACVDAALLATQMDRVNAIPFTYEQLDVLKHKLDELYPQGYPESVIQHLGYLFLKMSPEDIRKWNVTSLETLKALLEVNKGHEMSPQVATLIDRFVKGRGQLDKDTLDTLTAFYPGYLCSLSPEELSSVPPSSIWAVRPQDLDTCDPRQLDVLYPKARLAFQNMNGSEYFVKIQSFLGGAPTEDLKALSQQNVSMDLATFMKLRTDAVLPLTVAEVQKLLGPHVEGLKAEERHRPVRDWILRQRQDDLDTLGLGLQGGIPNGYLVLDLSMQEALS
binder,measurement,setting,value
"Tab107 (YP3, hIgG1) (antibody, V domains shown, Control antibody; VH and VL recombined into human IgG1 CH and CL expression vectors; also called YP3 human IgG1 antibody) VH: QEQLVESGGGLVQPGASLTLTCTASGIDFSRYYMCWVRQAPGKGLEGIACIYIGGSGSTYYASWAKGRFTISKASSTTVTLQMTSLTAADTATYFCARGTNLNYIFRLWGPGTLVTVSS VL: DVVMTQTPSPVSAAVGGTVTIKCQASQSINNGLAWYQQKPGQPPRLLIYSASNLESGVPSRFKGSGSGTEFTLTISDLECDDAATYYCQCIWDGNSYVNAFGGGTEVVVRT",OD450 nm,[1],0.05
same,OD450 nm,[2],0.05
same,OD450 nm,[3],0.05
same,OD450 nm,[4],0.05
same,OD450 nm,[5],0.05
same,OD450 nm,[6],1.74
same,OD450 nm,[7],0.05
same,OD450 nm,[8],0.05
same,OD450 nm,[9],0.05
same,OD450 nm,[10],0.09
same,OD450 nm,[11],0.04
same,OD450 nm,[12],0.04
same,OD450 nm,[13],0.05
same,OD450 nm,[14],0.05
same,OD450 nm,[15],0.04
same,OD450 nm,[16],0.05
same,FACS fluorescence intensity,[17],1520
same,FACS fluorescence intensity,[18],2640
same,FACS fluorescence intensity,[19],619
same,FACS fluorescence intensity,[20],3150
same,competition rate,[21],-124%
same,competition rate,[22],-203%
same,competition rate,[23],-24%
same,competition rate,[24],9%
same,FACS fluorescence intensity,[25],229
same,competition rate,[26],8%
same,competition rate,[27],-104%
same,competition rate,[28],-19%
same,FACS fluorescence intensity,[29],111
same,competition rate,[30],-80%
same,competition rate,[31],94%

# Reference: patent US20250250357A1 (NANJING ZAIMING PHARMACEUTICAL, published 2025)
